This note sets out measurements from IntAct's records for PubMed 9847329.

B1: Protein Rep68 (Adeno-associated virus 2 (isolate Srivastava/1982)), P03132 (parent)
chain: MPGFYEIVIKVPSDLDGHLPGISDSFVNWVAEKEWELPPDSDMDLNLIEQAPLTVAEKLQRDFLTEWRRVSKAPEALFFVQFEKGESYFHMHVLVETTGVKSMVLGRFLSQIREKLIQRIYRGIEPTLPNWFAVTKTRNGAGGGNKVVDECYIPNYLLPKTQPELQWAWTNMEQYLSACLNLTERKRLVAQHLTHVSQTQEQNKENQNPNSDAPVIRSKTSARYMELVGWLVDKGITSEKQWIQEDQASYISFNAASNSRSQIKAALDNAGKIMSLTKTAPDYLVGQQPVEDISSNRIYKILELNGYDPQYAASVFLGWATKKFGKRNTIWLFGPATTGKTNIAEAIAHTVPFYGCVNWTNENFPFNDCVDKMVIWWEEGKMTAKVVESAKAILGGSKVRVDQKCKSSAQIDPTPVIVTSNTNMCAVIDGNSTTFEHQQPLQDRMFKFELTRRLDHDFGKVTKQEVKDFFRWAKDHVVEVEHEFYVKKGGAKKRPAPSDADISEPKRVRESVAQPSTSDAEASINYADRLARGHSL

Variants of B1 are the subject of this experiment. To be noted: with tcp4_human SUB1, P53999.
For K340H, the “effect of a mutation on the interaction” value was “disrupting interaction”.
